The values below come from patent US20200181261A1 (Bayer, published 2020).

Where “and” joins values, the source holds several entries; their conditions need not be identical. Equal values may be shown once. Where only a bound is given, the exact number is not on record here.

For experiment [1], the target named is T1, human CEACAM1, extracellular (mature form), R&D Systems 2244-CM (human, UniProt P13688 35-428).
T1 construct: used biotinylated in some assays; also called TPP-1437; hC1
T1 sequence: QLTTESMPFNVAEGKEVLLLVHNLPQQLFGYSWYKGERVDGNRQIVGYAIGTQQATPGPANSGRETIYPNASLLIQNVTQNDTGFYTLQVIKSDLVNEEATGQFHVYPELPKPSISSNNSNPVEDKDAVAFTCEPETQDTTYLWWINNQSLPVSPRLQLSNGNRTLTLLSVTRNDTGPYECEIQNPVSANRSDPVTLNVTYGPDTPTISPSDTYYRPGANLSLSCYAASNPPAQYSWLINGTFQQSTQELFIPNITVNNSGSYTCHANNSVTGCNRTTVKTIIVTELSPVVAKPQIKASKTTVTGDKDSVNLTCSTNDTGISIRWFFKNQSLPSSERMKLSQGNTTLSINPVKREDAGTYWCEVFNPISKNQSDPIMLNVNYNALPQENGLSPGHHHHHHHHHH
Kind of experiment: SPR, antibody captured, antigen as analyte. (SPR reads the build-up and loss of mass on a sensor chip optically.)

Experiment [2] deals with T2, human CEACAM19, full-length, on transfected HeLa cells (human, UniProt Q7Z692 33-300).
T2 construct: also called TPP-4186; HeLa human CEACAM19
T2 sequence: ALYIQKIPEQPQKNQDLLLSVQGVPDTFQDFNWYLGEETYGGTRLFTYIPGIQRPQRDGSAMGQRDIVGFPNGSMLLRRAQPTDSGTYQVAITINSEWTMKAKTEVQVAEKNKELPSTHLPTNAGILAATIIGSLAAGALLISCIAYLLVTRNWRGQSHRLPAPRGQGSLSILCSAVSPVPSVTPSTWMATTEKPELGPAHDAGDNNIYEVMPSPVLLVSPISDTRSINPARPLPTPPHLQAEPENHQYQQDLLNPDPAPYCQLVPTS
In words: FACS, transfected HeLa cells. The procedure, abridged: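 Antibody binding to transfected HeLa cells was measured by FACS on a Canto II or FACS Array instrument. For half maximal binding (EC₅₀), primary antibodies were titrated from 0.1 nM to 100 nM. Median fluorescence intensity was plotted against log concentration, and curves were fitted in Graph Pad prism. Cells had been released with EDTA dissociation buffer and stained at 4° C.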
Background: In flow cytometry, cells or beads pass a laser one at a time.

For experiment [3], the target named is T3, human CEACAM6, full-length, on cells (human, UniProt P40199 35-320).
T3 sequence: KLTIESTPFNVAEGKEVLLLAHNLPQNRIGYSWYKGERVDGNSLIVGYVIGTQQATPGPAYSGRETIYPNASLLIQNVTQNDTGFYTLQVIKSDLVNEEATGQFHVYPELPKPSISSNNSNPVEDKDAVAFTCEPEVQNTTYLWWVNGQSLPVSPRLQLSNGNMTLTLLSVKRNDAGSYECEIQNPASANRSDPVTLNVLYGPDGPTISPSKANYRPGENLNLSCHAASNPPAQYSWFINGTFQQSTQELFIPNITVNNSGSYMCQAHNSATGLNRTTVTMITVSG
In words: cell-based or functional assay.

Experiment [4] concerns the target T3, human CEACAM6, full-length, on cells. Kind of experiment: FACS, NCI-H1993 cells (endogenous CEACAM6). How it is done: For FACS experiments HeLa wild type cells were cultured in RPMI-1640, 10% FCS, while CEACAM-receptor transfected HeLa cells received in addition 0.5% Gentamycin (stock 10 mg/ml, Fa. PAA) and 200 μg/ml Hygromycin B (stock 50 mg/ml, Invitrogen). Cells were washed 3 times with PBS w/o Ca²⁺/Mg²⁺ and were detached from the culture plate non-enzymatically with EDTA dissociation buffer (Gibco). Cells were washed in cold FACS buffer (PBS w/o Ca²⁺/Mg²⁺ and heat-inactivated 3% FCS) and were counted using a countess machine (Invitrogen). 10⁵ cells per well were plated and incubated with the respective primary antibody (5 μg/ml) for 1 h at 4° C. on a plate shaker. […] After 2 times washing the cells were resuspended in 100 μl FACS buffer and were analysed on a FACS Canto II machine (Beckton Dickinson) or a FACS Array (Beckton Dickinson).
For EC₅₀ analysis, the primary antibodies were used at increasing concentrations in a range from 0.1 nM to 100 nM. Half maximal binding values (EC₅₀) were determined by plotting the median fluorescence intensity signal against the concentration (logarithmic scale). Curve fitting of data was performed using the Graph Pad prism analysis software.
Anti-CEACAM6 antibodies were also tested for their binding to different cancer cell lines that endogenously express CEACAM6 by FACS analysis. […]

In experiment [5] the target is T4, Macaca fascicularis CEACAM6-Domain 1, obtained by Factor Xa cleavage of TPP-2452 (Macaca fascicularis).
T4 construct: also called APP-325; cynoC6-D1
T4 chain: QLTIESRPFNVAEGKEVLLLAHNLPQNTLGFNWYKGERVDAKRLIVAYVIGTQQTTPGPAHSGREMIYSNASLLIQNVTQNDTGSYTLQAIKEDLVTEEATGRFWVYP
In words: SPR, antibody captured, antigen as analyte.

Experiment [6] deals with T1, human CEACAM1, extracellular (mature …). Kind of experiment: ELISA, antibody captured, biotinylated antigen titrated; binding ELISA, biotinylated CEACAM1 titrated up to 2000 ng/ml; ambiguous fit.

B1: TPP-3821 (antibody, human IgG2, kappa, V domains shown)
VH: QVTLRESGPALVKPTQTLTLTCTFSGFSLSTYGIGVGWIRQPPGKALEWLAHIWWNDNKYYSTSLKTRLTISKDTSKNQVVLTMTNMDPVDTATYYCARISLPYFDYWGQGTLVTVSS
VL: DIQLTQSPSFLSASVGDRVTITCKASQNVGTAVAWYQQKPGKAPKLLIYSASNRYTGVPSRFSGSGSGTEFTLTISSLQPEDFATYYCQQYNNYPLTFGGGTKVEIKR
notes: humanized from TPP-3187, human IgG2; also called 3187HU2-hIgG2Kappa
With B1, the binding result in experiment [1] is on record as “no binding (tested: 200 nM)”; in experiment [2], “no binding (tested: 5 µg/ml)”.

B2: TPP-3310 (antibody, human IgG2, kappa)
heavy: QVTLRESGPALVKPTQTLTLTCTFSGFSLSTYGIGVGWIRQPPGKALEWLAHIWWNDNKYYSTSLKTRLTISKDTSKNQVVLTMTNMDPVDTATYYCARISLPYFDYWGQGTTLTVSSASTKGPSVFPLAPCSRSTSESTAALGCLVKDYFPEPVTVSWNSGALTSGVHTFPAVLQSSGLYSLSSVVTVPSSNFGTQTYTCNVDHKPSNTKVDKTVERKCCVECPPCPAPPVAGPSVFLFPPKPKDTLMISRTPEVTCVVVDVSHEDPEVQFNWYVDGVEVHNAKTKPREEQFNSTFRVVSVLTVVHQDWLNGKEYKCKVSNKGLPAPIEKTISKTKGQPREPQVYTLPPSREEMTKNQVSLTCLVKGFYPSDIAVEWESNGQPENNYKTTPPMLDSDGSFFLYSKLTVDKSRWQQGNVFSCSVMHEALHNHYTQKSLSLSPG
light: DIQLTQSPSFLSASVGDRVTITCKASQNVGTAVAWYQQKPGKAPKLLIYSASNRYTGVPSRFSGSGSGTEFTLTISSLQPEDFATYYCQQYSSYPLTFGGGTKVEIKRTVAAPSVFIFPPSDEQLKSGTASVVCLLNNFYPREAKVQWKVDNALQSGNSQESVTEQDSKDSTYSLSSTLTLSKADYEKHKVYACEVTHQGLSSPVTKSFNRGEC
notes: humanized from TPP-2971, human IgG2; also called TPP-2971HU1-hIgG2Kappa
Usually EC50 stands for the concentration that produces a half-maximal response. Take B2: in experiment [3], the “IC50 of the dose dependent effect on TIL mediated killing of HCC2935 cells (xCELLigence)” value was 0.62 µg/mL and 0.21 µg/mL. The values for the binding result in experiment [1] and in experiment [2] were “no binding (tested: 200 nM)” and “no binding (tested: 5 µg/ml)”, respectively. This molecule displayed an EC50 in experiment [4] of 0.8 to 1.6 nM.

B3: TPP-3820 (antibody, human IgG2, kappa, V domains shown)
VH: QVTLRESGPALVKPTQTLTLTCTFSGFSLTTYGIGVGWIRQPPGKGLEWLAHIWWNDNKYYSTSLKTRLTISKDTSKNQVVLTMTNMDPVDTATYYCARISLPYFDYWGQGTLVTVSS
VL: DIQLTQSPSFLSASVGDRVTITCKASQNVGTAVAWYQQKPGKAPKLLIYSASNRYTGVPSRFSGSGSGTEFTLTISSLQPEDFATYYCQQYNNYPLTFGGGTKVEIKR
notes: humanized from TPP-3187, human IgG2; also called 3187HU1-hIgG2Kappa
In the case of B3, the binding result in experiment [1] is recorded as “no binding (tested: 200 nM)”; in experiment [2], “no binding (tested: 5 µg/ml)”.

B4: TPP-2971 (antibody, mouse IgG1, V domains shown)
VH: QVTLKESGPGILQPSQTLSLTCSFSGFSLSTYGIGVGWIRQPSGKDLEWLAHIWWNDNKYYNTALKSRLTISKDTSNNQVFLKIASVDTADTATYYCARISLPYFDYWGQGTTLTVSS
VL: DIVMTQSQKFMSTSVGDRVSITCKASQNVGTAVAWYQQKPGQSPKLLIYSASNRYTGVPDRFTGSGSGTDFTLTISNMQSEDLADYFCQQYSSYPLTFGAGTKLELK
notes: murine hybridoma antibody, mouse IgG1; also called 792.15H12C9
For orientation: Kd means a measure of binding affinity in units of concentration. Take B4: the binding result in experiment [1] is given as “no binding (tested: 200 nM)”. Moreover, in experiment [5], the Kd was found to be 30 nM.

B5: TPP-3187 (antibody, mouse IgG1, V domains shown)
VH: QVTLKESGPGILQPSQTLSLTCSFSGFSLTTYGIGVGWIRQPSGKGLEWLAHIWWNDNKYYNTALKSRLTISKDTSNNQVFLKIASVDTADTATYYCARISLPYFDYWGQGTTLTVSS
VL: DIVMTQSQKFMSTSVGDRVSITCKASQNVGTAVAWYQQKPGQSPKLLIYSASNRYTGVPDRFTGSGSGTDFTLTISNMQSEDLADYFCQQYNNYPLTFGAGTKLELK
notes: murine hybridoma antibody, mouse IgG1; also called 792.15C4F4
As for B5, binding in experiment [5] was characterised by a dissociation constant (Kd) of 42 nM.

B6: TPP-3714 (antibody, human IgG2, kappa)
heavy: QVTLRESGPALVKPTQTLTLTCTFSGFSLSTYGIGVGWIRQPPGKALEWLAHIWWNDNKYYSTSLKTRLTISKDTSKNQVVLTMTNMDPVDTATYYCARISLPYFDYWGQGTLVTVSSASTKGPSVFPLAPCSRSTSESTAALGCLVKDYFPEPVTVSWNSGALTSGVHTFPAVLQSSGLYSLSSVVTVPSSNFGTQTYTCNVDHKPSNTKVDKTVERKCCVECPPCPAPPVAGPSVFLFPPKPKDTLMISRTPEVTCVVVDVSHEDPEVQFNWYVDGVEVHNAKTKPREEQFNSTFRVVSVLTVVHQDWLNGKEYKCKVSNKGLPAPIEKTISKTKGQPREPQVYTLPPSREEMTKNQVSLTCLVKGFYPSDIAVEWESNGQPENNYKTTPPMLDSDGSFFLYSKLTVDKSRWQQGNVFSCSVMHEALHNHYTQKSLSLSPG
light: DIQLTQSPSFLSASVGDRVTITCKASQNVGTAVAWYQQKPGKAPKLLIYSASNRYTGVPSRFSGSGSGTEFTLTISSLQPEDFATYYCQQYSSYPLTFGGGTKVEIKRTVAAPSVFIFPPSDEQLKSGTASVVCLLNNFYPREAKVQWKVDNALQSGNSQESVTEQDSKDSTYSLSSTLTLSKADYEKHKVYACEVTHQGLSSPVTKSFNRGEC
notes: humanized from TPP-2971, human IgG2; also called TPP-2971HU2-hIgG2Kappa
Turning to B6, the binding result was “no binding (tested: 200 nM)” in experiment [1] and “no binding (tested: 5 µg/ml)” in experiment [2].

B7: TPP-3705 (antibody, human IgG2, kappa, V domains shown)
VH: EVQLVESGGGLVQPGGSLRLSCAASGFTFSLYQMHWVRQAPGKGLEWVSWISFSGGNTGYADSVKGRFTISRDNSKNTLYLQMNSLRAEDTAVYYCARATGYSSPWYLDPWGQGTLVTVSS
VL: DIQMTQSPSSLSASVGDRVTITCQASHEIDNYLNWYQQKPGKAPKLLIYDAYWLKTGVPSRFSGSGSGTDFTLTISSLQPEDIATYYCQGYDDLSVTFGGGTKVDIKR
notes: also called 090E-M007-A09-Mat1-hIgG2-hIgG2Kappa
In turn, B7 yielded an EC50 in experiment [6] of over 2 µg/mL.

B8: TPP-3707 (antibody, human IgG2, kappa, V domains shown)
VH: EVQLVESGGGLVQPGGSLRLSCAASGFTFSLYQMHWVRQAPGKGLEWVSWISFSGGNTGYADSVKGRFTISRDNSKNTLYLQMNSLRAEDTAVYYCARATGYSSPWYLDPWGQGTLVTVSS
VL: DIQMTQSPSSLSASVGDRVTITCQASHEIDNYLNWYQQKPGKAPKLLIYDAYWSKTGVPSRFSGSGSGTDFTLTISSLQPEDIATYYCQGYDDLSVTFGGGTKVDIKR
notes: also called 090E-M007-A09-Mat2-hIgG2-hIgG2Kappa
Molecule B8 yielded an EC50 in experiment [6] of over 2 µg/mL. Further, the binding result in experiment [2] was “no binding (tested: 5 µg/ml)”.
